# From the nanobody polyreactivity screen of Harvey et al. (2022)
# Assay: yeast display, Sf9 membrane polyspecificity reagent, FACS + sequencing; frameworks hold sequencing errors
# Procedure, shortened: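 Galactose-induced (36–48 hours) yeast carrying a synthetic nanobody display library were exposed to 10% biotinylated, detergent-solubilized Sf9 membrane reagent at 4 °C for 1 hour. FACS followed streptavidin microbead enrichment, using low and high (top ~1%) gates for expression (anti-HA) and reagent binding (streptavidin). Colony PCR, MiSeq 2 × 250 sequencing and CDR-length filtering followed. Labels for polyreactivity reflect the gate of origin.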
row,Sequence,polyreactivity (PSR sort gate)
1,QVQLVESGGGLVQAGGSLLLSCAASGRTFTRYAMGWYRQAPGKERELVASITNGGGTYYADSVKGRFTMSRDNAKNTVYLQMNSLKPEDTAVYYCAKAERVTSHLYYSWGQGTQVTVSS,low polyreactivity
2,QVQLVESGGGLVQAGGSLLLSCAASGSIFGYYAMGWYRQAPGKERELVAAITRRGGSTYYADSVKGRFTISRDNAKNTVYLQMNSLKPEDTAVYYCNKVTRTEYDYWGQGTQVTVSS,high polyreactivity
3,QVQLVESGGGLVQAGGSLLLSCAASGSILVTYAMGWYRQAPGKERQLVAAISRGGRTYYADSVKGRFTISRDSAKNTVYLQMKSLNPEDNAVYYCNTLTRLVYDGMGYWGQGTQVIVSS,high polyreactivity
4,QVQLVESGGGLVQAGGSLLLSCAASGSTFGANAMGWYRQAPGKEREFVAAISRSGVRTYYADSVKGRFTISRDNAKNTVYLQMNSLKPEDTAVYYCAADGYWWTYTRYDYWGQGTQVTVSS,low polyreactivity
5,QVQLVESGGGLVQAGGSLLLSCAASGSTFPGYAMGWYRQEPGKERELVAAGGSTYYADSVKGRFTISLDNAKNTVYLQMNSLKPEDTAVYYCNARWYLVPIMEYLGQGTQVTVSS,low polyreactivity
6,QVQLVESGGGLVQAGGSLLLSCAASGSTFSGYAMGWYRQAPRKESDLVASINWSGGSTYADSVKGRFTISRDNAKNTVYLQMNSLKPEDTAVYYCARRWRAYLYGGRDYWGQGTQVTVSS,low polyreactivity
7,QVQLVESGGGLVQAGGSLLLSCAASGSTFYKYAMGWYRQAPGKERELVARNSRGGGSTYYADSVKGRFTISRDNAKNTVYLQMNSLKPEDTAVYYCAAGVRGQNEGYYWGQGTQVTVSS,high polyreactivity
8,QVQLVESGGGLVQAGGSLLLSCAASGYTFGTYDMGWYRQAPGKERELVAAISIGGSTNYADSVKGRFTISRDNAKNTVYLQMNSLKPEDTAVYYCAAEVNVGTLLLSVIVEDGDYWGQGTQVTVSS,low polyreactivity
9,QVQLVESGGGLVQAGGSLLLSCAASRSTFDTNAMGWYSQAPGKERELVAAIRWSTGNTYYADSVKGRFTISRDNAKKTDYLQKNSLKPEDTAVYYCAAYTGKHYKEGYWGQVTQVTVSS,low polyreactivity
10,QVQLVESGGGLVQAGGSLLLSCSASGRNFRANAMGWYRQAHRKERELVAAITSTGDRTYYADSVKGRFTISRDNAKNTVYLQMNSLKQEDTAVYYCAAENNRYGGYRKYDYWGLGTQVTVSS,low polyreactivity
11,QVQLVESGGGLVQAGGSLLLSCSASGRTFPVNAMGWYRKAHGKEREFVAVISSTGTTYYADSVKGRFTISRDNAKNTVYLQMNSLQPVDTAVYYCARRSNRRAYGNRVGVRRTVDYWGQGTQVTVSS,low polyreactivity
12,QVQLVESGGGLVQAGGSLLLSSAASGRTFSINAMGWYRQAHGKERELVAAITWSGGSTYYADSVKGRFTISRDNAKNTVYLQMNSLKPEDTAVYYCNAGLGKFPVKGGRRYRLDYSGQGTQVTVSS,low polyreactivity
13,QVQLVESGGGLVQAGGSLLLSSAASGSIFQPYAMGWYRPAPGKERELVAAISIGDSTNYADSVKGRFTISRDNAKITVYLQMNSLKPEDTAVYYCNTTGEYYDYWGQGTQVTVSS,low polyreactivity
14,QVQLVESGGGLVQAGGSLPLSCAASGLTFYRYAMGWYREAPGKERELVAAISFSGGSTYYADSVKGRFTISRDIAKYTVYIQMNCLKPEDTAVYYCAASYQGRRYQDRYDYWGQGNQVTVSS,high polyreactivity
15,QVQLVESGGGLVQAGGSLPLSCAASGNTFYNYAMGWYRQAPGKERELVAAISLSGGSTYYADSVKGRFTISRDNAKNTVYLQMNSLKPEDTAVYYCAADIFYYSSSYGYWGQGTQVTVSS,low polyreactivity
16,QVQLVESGGGLVQAGGSLPLSCAASGRIFRRNAKGWYRPAPGKEREMVAAIRYGGGTTYAHSVKGRFTISRDNAKNTVYLQMNSLKPEDTAVYYCAVGPRASFGYGYWGQGTQVTVSS,high polyreactivity
